# Measurements from the RNAGym collection of RNA variant scans (doi:10.1073/pnas.2313332121).
# Variants at the floor of the assay were thinned out.
# B1: TPR 5TU (parent)
# chain: GGAUCUUCUCGAUCUAACAAAAAAGACAAAUCUGCCACAAAGCUUGAGAGCAUCUUCGGAUGCAGAGGCGGCAGCCUUCGGUGGCGCGAUAGCGCCAACGUUCUCAACUAUGACACGCAAAACGCGUGCUCCGUUGAAUGGAGUUUAUCAUG
# Variants of: B1
# Experiment: polymerase ribozyme fitness, log enrichment relative to wild type (log ratio); higher = more active; in vitro selection for triplet polymerase activity
# Procedure, shortened: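 After PCR construction and transcription, each subunit's mutant library from a heterodimeric triplet polymerase ribozyme was annealed with a biotinylated primer, the partner subunit and triplets. Incubation was frozen, at −7 °C, and extended constructs were gel-excised, bound to streptavidin beads and amplified by RT-PCR, in one selection round done in triplicate. Fitness is the logarithm of a genotype's enrichment divided by that of the wild type, from inverse-variance-weighted replicate averages of Illumina-sequenced inputs and outputs. The base of the logarithm is 2, and genotypes needed ≥10 input reads and ≥1 read per output.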
row,Variant,polymerase ribozyme fitness (log ratio)
1,GGAUCUUCUCGAUCUAACAAAAAAGACUAAUCUGCCACAAAGCUUGAGAGCAUCUUCGGAUGCAGAUGCGGCAGCCUUCGGUGGCGCGAUAGCGCCAACGUUAUCAACUAUGACACGCAAAACGCGUGCUCCGUUGAAUGGAGUUUAUCAUG [A28U G67U C103A],≤ -4.2
2,GGAUCUUCUCGAUCUAACAAAAAAGACUAAUCUGCCACAAAGCUUGAGAGCAUCUUCGGAUGCAGAGGCGGCAGCCUUAGGUGGCGCGAUUGCGCCAACGUUCUCAAGUAUGACACGCAAAACGCGUGCGCCGUUGAAUGGACUUUAUCAUG [A28U C79A A91U C108G U130G G143C],≤ -4.2
3,GGAUCUUCUCGAUCUAACAAAAAAGACUAAUCUGCCACAAAGCUUGAGAGCAUCUUCGGAUGCAGAGGCGGCAGCCUUCGGUGGCGGGAUAGCGCCAACGUUCUCAACUAUGACACGGAAAACGCGUGCUCCGUUGAAUGGAGUUUAUCAUG [A28U C87G C118G],≤ -4.2
4,GGAUCUUCUCGAUCUAACAAAAAAGACUAAUCUGCCACAAAGCUUGAGAGCAUCUUCUGAUGCAGAGGCGGCAGCCUUGGGUGGCGCGAUAUCGCCAACGUUCUCAACUAUGACACGCAAAACGCGUGCUCCGUUGAAUGGAGUUUAUCAUG [A28U G58U C79G G92U],≤ -4.2
5,GGAUCUUCUCGAUCUAACAAAAAAGACUAAUCUGCCACAAAGCUUGAGACCAUCUUCGGAUGCAGAGGCGGCAGCCUUCGGUCGCGCGAUAGCGCCAACGUUCUCAACUCUGACACGCAAAACGCGUGCUCCGUUGAAUGGAGUUUAUCAUG [A28U G50C G83C A110C],≤ -4.2
6,GGAUCUUCUCGAUCUAACAAAAAAGACUAAUUUGCCACUAAGCUUGAGAGCAUCUUCUGAUGCAGAGGCGGCAGCCUUCGGUGGCGUGAUAGCGCCAACGUUCUCAACUAUGACACGCAAAACGCGUGCUCCGUUGAAUGGAGUUUAUCAUG [A28U C32U A39U G58U C87U],≤ -4.2
7,GGAUCUUCUCGAUCUAACAAAAAAGACUAAUCUGCCACAAAGCUUGAGAGCAUCUUCGGAUGCAGAGGCGGCUGCCUUCGGUGGCGCGAUGGCGCCAACGUUCUCAACUAUGACACGCAAAACGAGUGCUCCGUUGCAUGGAGUUUAUCAUG [A28U A73U A91G C125A A137C],≤ -4.2
8,GGAUCUUCUCGAUCUAACAAAAAAGACUAAUCUGCCACAAAGCUUGAGAGCAUCUUCGGAUGCAGAGGCGGCAGCGUUCGGUGGCGCGAUAUCGCCAACGUUCUCAACUAUGACACGCAAAACGCGUGCUCCGUUGAAUGGAGUUUAUCAUG [A28U C76G G92U],≤ -4.2
9,GGAUCUUCUCGAUCUAACAAAAAAGACUAAUCUGGCACAAAGCUUGAGAGCAUAUUCGGAUGCAGAGGCGGCAGCCUUACGUGGCGCGCUAGCACCAACGUUCUCAACUAUGACACGCAAAACGCGUGCUCCGUUGAAUGGAGUUUAUCAUG [A28U C35G C54A C79A G80C A89C G94A],≤ -4.2
10,GGAUCUUCUCGAUCUAACAAAAAAGACUAAUCUGCCACAAAGCUUGAGAGCAUCUUCGGAUGCAUAGGCGGCAGCCUUCGGGGGCGCGAUAGCGCCAACGGUAUCAACUAUGACACGCAAAACGCGUGCUCCGUUGAAUGGAGUUUAUCAUU [A28U G65U U82G U101G C103A G152U],≤ -4.2
11,GGAUCUUCUCGAUCUAACAAAAAAGACUAAUCUGCCACAAAGCUUGAGAGCAUCUUCGGAUGCAGAGGCGGCAGCCUUCGGUGGCGCGAUAGUGCCAACGUUCUCAACUAUGACACGUAAGACGCGUGCUCCGUUGAAUGGAGUUUAUCAUG [A28U C93U C118U A121G],≤ -4.2
12,GGAUCUUCUCGAUCUAACAAAAAAGACUAAUCUGCCACAAAGCUUGAGAGCAUCUUCGGAUGCAGAGGCGGCAACCUUCGGUGGUGCGAUUGCGCCAACGUUCUCAACUAUGACACGCAAAACGCGUGCUCCGUUGAAUGGAGUUUAUCAUG [A28U G74A C85U A91U],≤ -4.2
13,GGAUCUUCUCGAUCUAACAAAAAAGACUAAUCUGUCACAAAGCUUGAGAGCAUCUUCGGAUGCAGAGGCGGCAGCCUUCGGUGGCGCGAUAGCGCCAACGUUCUCAACUAUGACACGCAAAACGCGUGCUCCGUUGAAUGGAGUUUAUCAUG [A28U C35U],-4.12
14,GGAUCUUCUCGAUCUAACAAAAAAGACUAAUCUGCCACAAAGCUUGAGAACAUCUUCGGAUGCAGAGGCGGCAGCCUUCGGUGGCGCGAUAGCGCCAACGUUCUCAACUAUGACACGCAAAACGCGUGCUCUGUUGAAUGGAGUUUAUCAUG [A28U G50A C132U],≤ -4.2
15,GGAUCUUCUCGAUCUAACAAAAAAGACUAAUCUGCCACAAAGCUUGAGAGCAUCUUCGGAUGCAGAGGCGGCAGCCUUCGGUGGCGCGAUAGCGCUAACGUUCUCAACUAUGACACGCAAAACGCGUGCUCCGUUGAAUGGAGUUUAUCAUG [A28U C96U],-3.66
16,GGAUCUUCUCGAUCUAACAAAAAAGACUAAUCUGCCACAAAGCUUGAGAGCAUCUUCGGAUGCAGAGGCGGCAGCCUUCGGUGGCGCGAUAGCGCAAACGUUCUCAACUAUGACACGCAAAACGCGUGCUCCGUUGAAUGGAGUUUAUCAUG [A28U C96A],-3.93
17,GGAUCUUCUCGAUCUAACAAAAAAGACUAAUCUGCCACAAAGCUUGAGAGCAUUUUCGGAUGCAGAGGCGGCAGCAUUCGGUGGCGCGAUAGCGCCAACGUUCUCAACUAUGAUACGCAAAACGCGUGCUCCGUUGAAUGGAGUUUAUCAUG [A28U C54U C76A C114U],-3.97
18,GGAUCUUCUCGAUCUAACAAAAAAGACUAAUCUGCCACAAAGCUUGAGAGCAUCUUCGGAUGCAGAGUCGGCAGCCUUCGGUGGCGCGAUAGCGCCAAUGUUCUCAACUGUGACACGCAAAACGCGUGCUCCGUUGAAUGGAGUUUAUCAUG [A28U G68U C99U A110G],≤ -4.2
19,GGAUCUUCUCGAUCUAACAAAAAAGACUAAUUUGCCACAAACCUUGAGAGCAUCUUCGGAUGCAGAGGCGGCAGCCUUCGGUGACGCGGUAACGCCAACGUUCUCAACUAUGACACGCAAAACGCGUGCUACGUUGAAUGGAGUUUAACAUG [A28U C32U G42C G84A A89G G92A C131A U148A],≤ -4.2
